According to PMC9347351 (2022):

Tests used:
[1] = biological target: L-pY peptide (phosphotyrosine (pY) at the fourth residue; 5-carboxyfluorescein on the N-terminus; C-terminal amide); assay: ITC
[2] = biological target: T1, AS25 (synthetic construct (Homo sapiens …)); assay: ITC
T1 chain: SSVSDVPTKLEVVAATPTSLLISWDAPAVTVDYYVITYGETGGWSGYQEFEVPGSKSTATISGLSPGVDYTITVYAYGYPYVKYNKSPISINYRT

B1: synthetic L-Bcr-Abl SH2 domain (domain or fragment)
chain: KKKKKSGVNSLEKHSWYHGPVSRNAAEYLLSSGINGSFLVRESESSPGQRSISLRYEGRVYHYRINTASDGKLYVSSESRFNTLAELVHHHSTVADGLITTLHYPAPKRNK
modifications: biotinylated (position of the biotin not stated in the text shown)
- Kd [1]: 4.89 µM
- Kd [2]: 0.184 µM
